Test results taken from patent US20240360233A1 (University of Texas, published 2024).

Assays:
[1] = biological target: T1, TSLPR on TSLPR-expressing REH cells (UniProt Q9HC73 23-371); assay: cell-based or functional assay
T1 sequence (looked up): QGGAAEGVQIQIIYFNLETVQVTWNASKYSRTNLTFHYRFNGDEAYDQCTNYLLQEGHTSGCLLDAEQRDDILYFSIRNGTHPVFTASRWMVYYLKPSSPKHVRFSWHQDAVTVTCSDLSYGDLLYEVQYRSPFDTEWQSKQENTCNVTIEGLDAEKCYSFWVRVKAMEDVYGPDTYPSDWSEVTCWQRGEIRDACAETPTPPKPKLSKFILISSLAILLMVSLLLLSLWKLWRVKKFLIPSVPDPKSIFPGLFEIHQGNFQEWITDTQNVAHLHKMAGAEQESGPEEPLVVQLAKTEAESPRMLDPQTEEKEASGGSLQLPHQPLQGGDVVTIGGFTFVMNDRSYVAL

cynomolgus TSLPR = cynomolgus TSLPR (cynomolgus); assay: SPR (BIAcore)
human TSLPR protein = biological target: T2, human TSLPR protein (human, UniProt Q9HC73 23-231, limits assumed); assay: SPR (BIAcore)
T2 sequence (looked up): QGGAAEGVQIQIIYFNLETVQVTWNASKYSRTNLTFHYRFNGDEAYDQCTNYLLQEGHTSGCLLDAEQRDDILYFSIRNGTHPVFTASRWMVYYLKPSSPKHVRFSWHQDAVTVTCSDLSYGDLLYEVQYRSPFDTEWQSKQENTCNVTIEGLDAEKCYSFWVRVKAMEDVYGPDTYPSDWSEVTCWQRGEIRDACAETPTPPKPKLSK

[2] = biological target: T3, his-tagged TSLPR (TSLPR-HIS) (UniProt Q9HC73 23-231, limits assumed); assay: BLI (ForteBio AHQ sensor), antibody captured, TSLPR-HIS in solution
T3 construct: Soluble protein used in the ForteBio assay; not shown: His tag
T3 sequence (looked up): T2 sequence (looked up)
Experimental: TSLPR antibody clones whose VH and VL sequences are disclosed in Tables 9 and 10 were bound to the AHQ sensor and his-tagged TSLPR (TSLPR-HIS) was provided in solution. […] The anti-TSLPR antibodies were serially diluted with an HBS-EP solution (GE Healthcare), and 100 μL of the solution was added to the flow path at a flow rate of […].

B1: TSLPR antibody clone 1B7 (antibody, V domains shown)
VH: QVQLQESGPGLVKPSGTLSLTCAVSGGSISSSNWWSWVRQPPGKGLEWIGEIYHGGTTNNNPSLKSRVTISVDKSKSQFSLKLSSVTAADTAVYYCARHRYSNGLDYWGQGTLVTVSS
VL: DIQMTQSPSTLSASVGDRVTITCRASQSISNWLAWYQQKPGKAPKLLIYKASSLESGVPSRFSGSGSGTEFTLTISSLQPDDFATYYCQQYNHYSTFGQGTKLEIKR
notes: also called TSLPR-6; TSLPR-006
EC50 (Promega ADCC reporter assay, RLU) [1]: 0.08 nM | Kd (cynomolgus TSLPR): ~2.03 nM | Kd (human TSLPR protein): ~2.87 nM | Kd [2]: 2.82 nM | koff [2]: 0.00079 s⁻¹ | kon [2]: 280000 M⁻¹ s⁻¹

B2: TSLPR antibody clone 1A9 (antibody, V domains shown)
VH: QVQLQESGPGLVKPSETLSLTCAVSGYSISSGYYWGWIRQPPGKGLEWIGRIYHSGTTSYNPSLKRRVTISVDTSKNQFSLKLSSVTATDTAVYYCARNWGGNWFDPWGQGTLVTVSS
VL: EIVLTQSPATLSLSPGERATLSCRASQSVSSYLAWYQQKPGQAPRLLIYDASNRATGIPARFSGSGSGTDFTLTISSLEPEDFAVYYCQQRSTWLTFGGGTKVDIKR
notes: also called TSLPR-4; TSLPR-004
EC50 (Promega ADCC reporter assay, RLU) [1]: 0.03 nM | Kd [2]: 4.45 nM | koff [2]: 0.000769 s⁻¹ | kon [2]: 173000 M⁻¹ s⁻¹
